Test results reported in the Human Domainome abundance scans (Beltran et al. 2025).

B1: Retinoic acid receptor RXR-alpha, residues 132 to 208; numbered along this chain, P19793 (parent)
chain: KHICAICGDRSSGKHYGVYSCEGCKGFFKRTVRKDLTYTCRDNKDCLIDKRQRNRCQYCRYQKCLAMGMKREAVQEE
B2: Friend leukemia integration 1 transcription factor, residues 116 to 197; numbered along this chain, Q01543 (parent)
chain: NMTTNERRVIVPADPTLWTQEHVRQWLEWAIKEYSLMEIDTSFFQNMDGKELCKMNKEDFLRATTLYNTEVLLSHLSYLRES

Variants of: B1
Test: abundance fitness (aPCA) (normalised: wild type 0, dead -1); higher = more abundant; growth selection in yeast, the domain comes from the species named
Settings: Homo sapiens

Abundance fitness, by site and new letter:
E72: H -0.109; W 0.041; F -0.19; D 0.047; A -0.022; Q -0.042; C -0.047; S 0.034; T -0.026; P -0.12; M -0.07; I 0.046; L -0.046; V 0.16; G -0.096; R -0.017
A73: K -0.081; V -0.019; Y -0.056; D 0.048; S 0.004; Q -0.04; T 0.009; L -0.027; W -0.007; G -0.008; P 0.011; E -0.011; I 0.05; N 0.015; F -0.01; M 0.044; R -0.037; C 0.04
K70: V 0.04; Y 0.037; E -0.074; H 0.037; Q -0.01; I 0.035; A -0.014; R -0.012; M -0.034; N 0.061; P 0.021; F 0.043; D 0.006; L 0.01; W -0.005; S 0.002
E76: C 0.023; S -0.034; G 0.05; L 0.01; F 0.003; V 0; H -0.012; W -0.052; P -0.054; R -0.037; T -0.049; K -0.099; N 0.022; Y -0.011; D 0.05; M -0.036; Q 0.001
V74: K 0.056; P -0.002; R -0.03; Q -0.007; C 0.017; E -0.018; T 0; A -0.045; W -0.074; M -0.025; H -0.021; I -0.017; N -0.064; L -0.046; Y -0.039; S -0.059; G -0.028; D -0.039
E77: F 0.1; M -0.034; Q -0.012; V -0.002; K 0.008; N 0.065; T 0.106; Y 0.023; H 0.02; R 0.003; I 0.038; L -0.012; D -0.002; C 0.013; G 0.073; W 0.04
Q75: K -0.047; M 0.043; E 0.073; P -0.002; A -0.049; C 0.026; F -0.039; V 0.013; L -0.031; G -0.006; S -0.004; D 0.022; W -0.129; N -0.052; R 0.003; T -0.011; I -0.014; Y -0.092; H -0.049
M69: Q -0.157; R -0.875; P -0.856; S -0.262; T -0.343; V -0.319; W -0.007; L -0.036
R71: M -0.01; G -0.004; D 0.065; A 0.033; H -0.007; I 0.028; V 0.021; S 0.003; K 0.043; N 0.015; W -0.056; Q 0.001; T 0.019; L 0.033; P 0.005; Y 0.006; C -0.001; F 0.01; E 0.006

Variants of: B2
Test: as above
Settings: Homo sapiens

Abundance fitness: each site, then its substitutions
S74: E 0.271; F -0.404; W -0.561
T65: W -1.03; V -0.966; S -0.011; P -0.085
N46: F 0.045; P -0.205
L76: F -0.555; I -0.391; R -0.723; V -0.432
P12: D 0.095; L -0.344; M -0.095
L61: E -0.16; F -0.307; H -0.36
T16: R -0.139
